Results as given in publication PMC6987408, “Structural Insights Into the Transcriptional Regulation of HigBA Toxin–Antitoxin System by Antitoxin HigA in Pseudomonas aeruginosa” (Frontiers in Microbiology, 2019).

How the values were obtained:
[1] = molecular target: PaHigA (Pseudomonas aeruginosa PAO1) (UniProt Q9HVC1); assay: ITC; settings: ITC: 20 mM Tris pH 8.0, 100 mM NaCl, 5% glycerol, 20 C, 400 uM DNA into 100 uM PaHigA; EMSA: DNA annealed in 10 mM NaCl, 20 mM Tris pH 8.0, 30 min at room …
[2] = molecular target: the molecule itself; assay: SAXS; apo PaHigA in solution at 1, 3 and 5 mg/ml, 22°C; oligomeric state from the fit to the dimer's theoretical curve and from the calculated molecular mass
[3] = molecular target: PaHigA (Pseudomonas aeruginosa PAO1, UniProt Q9HVC1 1-101); assay: crystal structure; 2.50 A; water-mediated contacts; ITC: 20 mM Tris pH 8.0, 100 mM NaCl, 5% glycerol, 20 C, 400 uM DNA into 100 uM PaHigA; EMSA: DNA annealed in 10 mM NaCl, 20 mM Tris pH 8.0, 30 min at room temperature, 5% native gel at 20 C; settings: protein: recombinant; tags: C-terminal His6; chain copies: 4

PhigBA 28-bp duplex
Ka [1]: 7.5e+13 M^-2

B1: PaHigA (Pseudomonas aeruginosa antitoxin HigA) (natural protein, Pseudomonas aeruginosa PAO1, UniProt Q9HVC1 1-101, looked up)
chain: MATNGMRPIHPGEILRDEFLMEFDISPAALARALKVSAPTVNDIVREQRGISADMAIRLGRYFDTSAQFWMNLQSEYSLATAYAANGKQIEHEIEPLLAHG
notes: Antitoxin HigA of P. aeruginosa PAO1, gene higA (PA4674), full length amplified from the PAO1 genome; Cloned NcoI/BamHI into pET28b with a C-terminal His tag; the construct comes from Guo et al., 2019; also called PaHigA-His; apo PaHigA; source: E. coli BL21(DE3) pLysS, purified (nickel-nitrilotriacetic acid resin, gel filtration on Superdex 200); not shown: His6, C-terminal, kept
stoichiometry N [2]: 2

B2: PhigBA 18-bp duplex (dsDNA)
DNA 1: ACGCTTAACGTTAAGGGT
DNA 2: ACCCTTAACGTTAAGCGT
binding result [3]: binds
